The values that follow come from the supplement of paper PMC10567573.

± gives the standard deviation.

The series is described as follows: protein stability index of a GFP-peptide fusion (GPS, HEK-293T) (PSI 1-6); higher = more stable.
[1] abbreviates: treatment: DMSO, c terminus: a fixed tail appended.
Setting [2] is: treatment: MLN4924 1 uM, 8 h, c terminus: a fixed tail appended.
[3] abbreviates: treatment: DMSO, c terminus: native.
The mark [4] stands for this setting: treatment: MLN4924 1 uM, 8 h, c terminus: native.
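Note: 24-mer peptide tiles fused after GFP, lentivirally expressed, FACS-sorted into six equal bins by GFP/DsRed ratio, decoded by Illumina sequencing, PSI is the read-weighted mean bin number.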

In the case of HILKARKVLTEPEVRYYLRQIVSG [PLK2], the protein stability index by setting is: under setting [1], 2.17 ± 0.53; under setting [2], 2.33 ± 0.43.
In the case of MDALQLANSAFAVDLFKQLCEKEP [SERPINB5], the protein stability index came to 3.5 ± 0.36 under setting [1] and 3.53 ± 0.16 under setting [2].
Regarding QETAEFFLSLDIPIGELYGLSESS [ACSBG2], the protein stability index runs as follows: under setting [1], 2.61 ± 0.37; under setting [2], 2.47 ± 0.41.
On to KCEQPFFWNIKQMWDTKTLGLRQH [WDFY1], for which the protein stability index by setting is: under setting [1], 2.12 ± 0.17; under setting [2], 2.38 ± 0.27.
Regarding DLGEGKICFCCEEFQPAKCTDKEN [FAM189A2], the protein stability index stood at 4.24 ± 0.34 under setting [1] and 4.07 ± 0.085 under setting [2].
As for ALLWLSCSIALLRALATSNARAQQ [GNAS], the protein stability index reads like this: under setting [1], 3.21 ± 0.51; under setting [2], 2.99 ± 0.25.
As for VVLTFITPMLNPLIYTLKNAEMKS [OR4A15], the protein stability index worked out at 3.22 ± 0.073 under setting [1] and 2.99 ± 0.63 under setting [2].
Regarding VGRLYAVYDQAVSIFYDLPQGSGF [SMAD6], the protein stability index under setting [1] came to 2.54 ± 0.47 and the protein stability index under setting [2] is 2.39 ± 0.65.
On to DVTSLSSQLPDTPNSMVPSPVET [ISL2], for which the protein stability index was 4.24 ± 0.1 under setting [3] and 4.39 ± 0.34 under setting [4].
Consider RTSVGVAVLGGFLYAVGGQDGVSC [KLHL20], for which the protein stability index amounted to 2.37 ± 0.17 under setting [1] and 2.45 ± 0.38 under setting [2].
Taken in the same sequence, the figures for ASLNGYRLGERVLQVSFKTSKQHK [ELAVL3] were 3.45 ± 0.13 and 3.52 ± 0.32.
For the sequence DGLDGISVGSYLDTLADDVPGHQT [LURAP1L], the protein stability index stood at 5.12 ± 0.27 under setting [1] and 4.86 ± 0.22 under setting [2].
RLLELMNQHDTEMKYYIVHLKRHF [DYRK1B] gave a protein stability index under setting [1] of 2.35 ± 0.22 and a protein stability index under setting [2] of 2.54 ± 0.48.
Take SQWDVLSGDCDQRFRFPSPILKVQ [RBBP5]: the protein stability index reads like this: under setting [1], 3.34 ± 0.14; under setting [2], 3.38 ± 0.32.
As to DSYCDALTRPEPVHEFCAGRECQP [ADAMTSL2], the protein stability index by setting is: under setting [1], 4.86 ± 0.1; under setting [2], 4.57 ± 0.29.
Regarding KLIDRLEKKDLKLEPPEEEIIEGN [NECAB1], the protein stability index runs as follows: under setting [1], 4.88 ± 0.32; under setting [2], 4.8 ± 0.19.
Turning to NLITTVTPEKKAEEERDEEEDKRR [EPB41L3], the protein stability index is, setting by setting: under setting [1], 5.61 ± 0.35; under setting [2], 5.56 ± 0.2.
As for FQASNPYLPTRGGTTMASGGRFRC [TRIM55], the protein stability index amounted to 2.54 ± 0.65 under setting [1] and 3.14 ± 0.7 under setting [2].
As to VEGRHLYVLEFSDHPGIHEPLEPE [CPN1], the protein stability index by setting is: under setting [1], 3.04 ± 0.23; under setting [2], 3.28 ± 0.33.
As for EETKKLANKYLVEDVLLLNFEEMR [KLHL14], the protein stability index was 3.23 ± 0.23 under setting [1] and 3.18 ± 0.27 under setting [2].
On to TGFIFQKVGKLAATAVGGGFFLLQ [FUNDC2], for which the protein stability index runs as follows: under setting [1], 2.36 ± 0.21; under setting [2], 2.09 ± 0.51.
Regarding QCKDALEIYKRFLTRMTRVSEFLK [SNAP91], the protein stability index amounted to 2.77 ± 0.9 under setting [1] and 2.51 ± 0.24 under setting [2].
As to LLRHQRIHTGERPYKCPECGKSFS [ZNF263], the protein stability index reads like this: under setting [1], 2.71 ± 0.47; under setting [2], 3.58 ± 0.47.
For the sequence GLQHAPEPDAADGPYDPNSVRISF [SMAD6], the protein stability index came out at 4.24 ± 0.38 under setting [1] and 4.49 ± 0.27 under setting [2].
The matching figures for NFSQPVAGRPSLLRHDEVRTYFHE [NLN]: 3.36 ± 0.61 and 3.33 ± 0.31.
On to MTVEEIYKDRQKFSEQVFKVASSD [FLOT1], for which the protein stability index runs as follows: under setting [1], 3.83 ± 0.21; under setting [2], 3.61 ± 0.31.
Consider CSRFFIDFPDILEQQRKLETYLQN [TENT5C], for which the protein stability index runs as follows: under setting [1], 2.17 ± 0.22; under setting [2], 2.24 ± 0.12.
As to EEEEGTRSPTLEPPRGRSEAPDSL [SMG5], the protein stability index runs as follows: under setting [1], 5.44 ± 0.14; under setting [2], 5.68 ± 0.25.
Consider KIFVENLRRQKSLRLEWETQQELR [IQUB], for which the protein stability index is, setting by setting: under setting [1], 2.69 ± 0.43; under setting [2], 2.93 ± 0.46.
Turning to KCGDLECEALINRVSAMRDYRGPD [MIA2], the protein stability index runs as follows: under setting [1], 3.25 ± 0.63; under setting [2], 3.21 ± 0.076.
In the case of SESNSATVEEPPTDPIPEDEKKE [SMARCE1], the protein stability index runs as follows: under setting [3], 5.58 ± 0.47; under setting [4], 5.41 ± 0.1.
For LLEDARRKGMPFAQWDGPTVVSWL [PPFIA4], the protein stability index reads like this: under setting [1], 2.11 ± 0.15; under setting [2], 2.01 ± 0.33.
Turning to QPPRFPVPHNGSSEATLPAQMSTL [PDLIM4], the protein stability index reads like this: under setting [1], 4.67 ± 0.19; under setting [2], 4.83 ± 0.089.
For the sequence PARTVLVGSLSWLRKQLQPTHCKY, the protein stability index is, setting by setting: under setting [1], 2.38 ± 0.43; under setting [2], 2.19 ± 0.098.
Consider DLKPENIMLLDKNVPNPRIKLIDF [DAPK3], for which the protein stability index worked out at 2.79 ± 0.084 under setting [1] and 2.93 ± 0.21 under setting [2].
Taken in the same sequence, the figures for KSSGRFLWIKFFAAGELESMGFSA [NETO1] were 2.59 ± 0.54 and 2.64 ± 0.73.
Regarding QTYFRQNRDEVLDNLLAFVCDIRP [ATP6V1G1], the protein stability index reads like this: under setting [1], 2.64 ± 0.44; under setting [2], 2.27 ± 0.23.
VQGLEGIKMAMVACGDAFTVAIGA [NEK8]: the protein stability index was determined as 2.79 ± 0.71 under setting [1] and 2.95 ± 0.46 under setting [2].
The matching figures for LGKMLIGLAGYLSGYDGTFLFQKP [POMT2]: 2.65 ± 0.86 and 2.45 ± 0.79.
Regarding DLVAMQWADAAGEAVPEGPDGGGP [ZSWIM9], the protein stability index reads like this: under setting [1], 4.99 ± 0.33; under setting [2], 5.17 ± 0.12.
Taken in the same sequence, the figures for EGHSIVGFAMYYFTYDPWIGKLLY [SAT1] were 3.07 ± 0.16 and 3.02 ± 0.99.
For GGAGSGFGGGYGGGLGGGYGGGLG [KRT13], the protein stability index by setting is: under setting [1], 3.35 ± 0.2; under setting [2], 2.85 ± 0.2.
Taken in the same sequence, the figures for SLVRDTIARVHGTFGAAACSIGFA [POP5] were 2.31 ± 0.38 and 2.48 ± 0.22.
Take LKVKCLNNLAASQLKLDHYRAALR [FKBP8]: the protein stability index is, setting by setting: under setting [1], 2.28 ± 0.31; under setting [2], 2.19 ± 0.47.
In the case of DMWSLGCILVEMHTGEPLFSGSNE [DYRK1B], the protein stability index by setting is: under setting [1], 1.97 ± 0.33; under setting [2], 2.15 ± 0.23.
KSPSSPQAAFTQQGMEGIKVFLHE [TBX5]: the protein stability index runs as follows: under setting [1], 3.58 ± 0.23; under setting [2], 3.68 ± 0.26.
With TYPFLAMIMLKDRRMTVVGRLEGL [FAF2], the protein stability index was 2.66 ± 0.76 under setting [1] and 2.57 ± 0.46 under setting [2].
Consider EILLHPWFESVLEPGYIDSEIGTS [TRIB1], for which the protein stability index was determined as 2.44 ± 0.29 under setting [1] and 2.56 ± 0.43 under setting [2].
Regarding LPWQGLKADTLKERYQKIGDTKRA [CSNK1G3], the protein stability index runs as follows: under setting [1], 3.77 ± 0.11; under setting [2], 3.76 ± 0.41.
Take CTAKCGERSVVTRDIRCSEDEKLC [ADAMTSL2]: the protein stability index under setting [1] was found to be 4.63 ± 0.38 and the protein stability index under setting [2] turned out to be 4.61 ± 0.18.
Consider RHQRIHTGERPYECNECGKAFSRS [ZSCAN9], for which the protein stability index runs as follows: under setting [1], 3.29 ± 0.24; under setting [2], 3.82 ± 0.31.
Regarding WQYLSGGKVKLQQNPGKFDELDMS [TBC1D10A], the protein stability index stood at 3.16 ± 0.32 under setting [1] and 3.35 ± 0.26 under setting [2].
Taken in the same sequence, the figures for AALSERGQAEEELIKAKSQARLEE [LRRC45] were 5.28 ± 0.55 and 5.39 ± 0.46.
The matching figures for APVSRGRDSYGGPPRREPLPSRRD [RBMX]: 5.12 ± 0.21 and 4.93 ± 0.22.
Turning to CMGAMSLFLPCLLCYPPAKGCLKL [SPRY1], the protein stability index came to 2.8 ± 0.56 under setting [1] and 3.04 ± 0.83 under setting [2].
LPPVAVRSLQDLARIAIRGTIKKI [PCMTD2] showed a protein stability index under setting [1] of 3.2 ± 0.34 and a protein stability index under setting [2] of 3.12 ± 0.22.
For QGTARTLSPVLESPRDLQFSEIRE [TNXB], the protein stability index was 4.64 ± 0.16 under setting [1] and 4.78 ± 0.18 under setting [2].
Turning to MAHGYGEESEEERGLEPGKGRHHR [CHGB], the protein stability index is, setting by setting: under setting [1], 5.22 ± 0.27; under setting [2], 5.34 ± 0.11.
The matching figures for VIEEAKTAFLLNIQLFEELQELLT [HMOX1]: 2.08 ± 0.32 and 2.38 ± 0.2.
Taken in the same sequence, the figures for NVDDPTGAHSNAPITAHAEVEVVE [CSNK1G1] were 5.35 ± 0.61 and 5.39 ± 0.47.
Turning to LGRGLVGGQEEASQEAGLPAGAGP [SEPHS2], the protein stability index by setting is: under setting [1], 5.23 ± 0.47; under setting [2], 4.75 ± 0.65.
As for ECGKAFSRSSILVQHQRVHTGEKP [ZNF24], the protein stability index reads like this: under setting [1], 3.78 ± 0.3; under setting [2], 3.96 ± 0.14.
For the sequence IRLMQRCWQGDPRVRPTFQEITSE [RIPK4], the protein stability index by setting is: under setting [1], 2.798 ± 0.002; under setting [2], 2.78 ± 0.45.
The matching figures for SDLTLYLVVAVAAVSCVFLAFVIV [PCDHGA10]: 2.97 ± 0.61 and 2.71 ± 0.5.
On to GTTEAATQDGKEQPELPCAMAMGT [PXN], for which the protein stability index reads like this: under setting [1], 5.48 ± 0.13; under setting [2], 5.45 ± 0.22.
With AAAVLFRMSEDKPQDYKKRLSVEL [CTNNB1], the protein stability index amounted to 2.62 ± 0.31 under setting [1] and 2.25 ± 0.27 under setting [2].
For AVKDGLIVETLTVGCKGSKAGIEQ [ZMYND11], the protein stability index by setting is: under setting [1], 3.57 ± 0.14; under setting [2], 3.48 ± 0.22.
For the sequence ASDMFRRLRDAGFRVTLWVHPFVN [MYORG], the protein stability index by setting is: under setting [1], 2.23 ± 0.17; under setting [2], 2.13 ± 0.053.
On to KLATCYFFTVEFGLCKQDGQLRVF [TPH1], for which the protein stability index runs as follows: under setting [1], 2.59 ± 0.47; under setting [2], 2.97 ± 0.56.
Turning to ILGVIGLFTIPLLYRQHQAQIDQY [RTN2], the protein stability index runs as follows: under setting [1], 3.28 ± 0.71; under setting [2], 3.1 ± 0.84.
The matching figures for VPRPGTPQSPPSCRAPPPEARGIR [FCHO1]: 4.85 ± 0.42 and 4.85 ± 0.14.
For the sequence KTRRKTSARDASPTPSTDAEYPAN [NCK2], the protein stability index was determined as 5.31 ± 0.21 under setting [1] and 5.45 ± 0.17 under setting [2].
